This series deals with the molecule itself. The series can be described thus: protein concentration dependence of fluorimetric metal uptake kinetics.

Here are results for one protein from PMC3018548 (Archives of biochemistry and biophysics, 2010).

B1: Escherichia coli apo-manganese superoxide dismutase (wt apo-MnSOD) (enzyme, UniProt P00448 1-206, looked up)
chain: MSYTLPSLPYAYDALEPHFDKQTMEIHHTKHHQTYVNNANAALESLPEFANLPVEELITKLDQLPADKKTVLRNNAGGHANHSLFWKGLKKGTTLQGDLKAAIERDFGSVDNFKAEFEKAAASRFGSGWAWLVLKGDKLAVVSTANQDSPLMGEAISGASGFPIMGLDVWEHAYYLKFQNRRPDYIKEFWNVVNWDEAAARFAAKK
As a reminder, the Kd is the concentration at which binding is half-saturated. Low readings indicate a tighter complex, high ones a looser complex. For the protein B1, the dissociation constant (Kd) was found to be 6.6 ± 0.9 µM.
